Laboratory results published in article PMC11065751.
Several values for one entry are separate records, joined by “and”; a condition that tells them apart may be missing. Equal values may be shown once.

Key:
[1] = target: Vangl2-Long (70 kD isoform), endogenous mouse (mouse (endogenous in IMCD3)); assay: co-IP; serial IP of endogenous proteins from IMCD3 cell extracts: two successive rounds of IP with N-VGL2 pAb, then IP of the Vangl2-Long depleted lysate with a Vangl1-specific antibody
[2] = target: Vangl2-Long (70 kD isoform), endogenous mouse (mouse (endogenous in IMCD3)); assay: co-IP; endogenous proteins; SKBR7 or IMCD3 cell lysates (50 mM Hepes-NaOH pH 8, 150 mM NaCl, 10% glycerol, 2 mM EDTA, 0.5% NP-40) incubated overnight at 4 °C with N-VGL2 pAb (VANGL2-Long specific) or mAb 36E3, protein A or G beads; blots with mAb 36E3 and mAb 19D5; 62 kD and 70 kD bands quantified for the ratio

percent of Vangl2 depleted by IP of Vangl2-Long [1]: 50%
stoichiometry N (Vangl2 per Vangl2-Long) [2]: 3 and 4
B1: Vangl2 (canonical 62 kD isoform), endogenous mouse (natural protein)
chain: MDTESQYSGYSYKSGHSRSSRKHRDRRDRHRSKSRDGSRGDKSVTIQAPGEPLLDNESTRGDERDDNWGETTTVVTGTSEHSISHDDLTRIAKDMEDSVPLDCSRHLGVAAGAILALLSFLTPLAFLLLPPLLWREELEPCGTACEGLFISVAFKLLILLLGSWALFFRRPKASLPRVFVLRALLMVLVFLLVISYWLFYGVRILDARERSYQGVVQFAVSLVDALLFVHYLAVVLLELRQLQPQFTLKVVRSTDGASRFYNVGHLSIQRVAVWILEKYYHDFPVYNPALLNLPKSVLAKKVSGFKVYSLGEENSTNNSTGQSRAVIAAAARRRDNSHNEYYYEEAEHERRVRKRRARLVVAVEEAFTHIKRLQEEEQKNPREVMDPREAAQAIFASMARAMQKYLRTTKQQPYHTMESILQHLEFCITHDMTPKAFLERYLAAGPTIQYHKERWLAKQWTLVSEEPVTNGLKDGIVFLLKRQDFSLVVSTKKVPFFKLSEEFVDPKSHKFVMRLQSETSV
